Test results reported in publication PMC5737377, “Structural insights into RapZ-mediated regulation of bacterial amino-sugar metabolism” (Nucleic Acids Research, 2017).

B1: RapZ-CTD (154–284) (domain or fragment, Escherichia coli, UniProt P0A894 154-284, looked up)
chain: GKRERELTMVFESFGFKHGIPIDADYVFDVRFLPNPHWDPKLRPMTGLDKPVAAFLDRHTEVHNFIYQTRSYLELWLPMLETNNRSYLTVAIGCTGGKHRSVYIAEQLADYFRSRGKNVQSRHRTLEKRKP
notes: RapZ, Escherichia coli, C-terminal domain, residues 154-284; also called C-terminal domain of RapZ; source: E. coli Rosetta, purified (Strep Trap, MonoS, gel filtration)
B2: full length Escherichia coli RapZ (natural protein, UniProt P0A894 1-284, looked up)
chain: MVLMIVSGRSGSGKSVALRALEDMGFYCVDNLPVVLLPDLARTLADREISAAVSIDVRNMPESPEIFEQAMSNLPDAFSPQLLFLDADRNTLIRRYSDTRRLHPLSSKNLSLESAIDKESDLLEPLRSRADLIVDTSEMSVHELAEMLRTRLLGKRERELTMVFESFGFKHGIPIDADYVFDVRFLPNPHWDPKLRPMTGLDKPVAAFLDRHTEVHNFIYQTRSYLELWLPMLETNNRSYLTVAIGCTGGKHRSVYIAEQLADYFRSRGKNVQSRHRTLEKRKP
notes: RapZ (formerly YhbJ), Escherichia coli, full length, residues 1-284; also called YhbJ; full-length RapZ (1–284); source: E. coli Rosetta, purified (Strep Trap, heparin, gel filtration)

Legend:
[1] = system: RapZ-CTD (Strep-tag cleaved) (Escherichia coli); test: BLI; conditions: 1 mM Mg2+; Kd values only in figure; incomplete dissociation; 5' biotin; BLI: 25 mM Tris pH 7.5, 50 mM NaCl, 50 mM KCl, 1 mM MgCl2, 1 mM DTT, temperature not stated; EMSA (GlmY): 10 mM Tris pH 7.0, 100 mM KCl, 10 mM MgCl2, 1 ug …; scale: fold higher affinity than full-length RapZ
[2] = system: RapZ full length (Strep-tag cleaved) (Escherichia coli); test: BLI; conditions: 1 mM Mg2+; Kd values only in figure; incomplete dissociation; 5' biotin; BLI: 25 mM Tris pH 7.5, 50 mM NaCl, 50 mM KCl, 1 mM MgCl2, 1 mM DTT, temperature not stated; EMSA (GlmY): 10 mM Tris pH 7.0, 100 mM KCl, 10 mM MgCl2, 1 ug …
[3] = target: the molecule itself; test: SEC-MALS + AUC; RapZ-CTD alone. SEC-MALS: 30 μM on Superdex 200 10/300 GL, 25 mM Tris pH 7.5, 200 mM KCl, 1 mM TCEP, 25°C. Sedimentation velocity AUC: 0.5–1 mg/ml, 20°C, 50 000 rpm
[4] = target: the molecule itself; test: SEC-MALS; full-length RapZ alone, 30 μM on Superdex 200 10/300 GL, 25°C

Molecule	relative binding affinity [1]	relative binding affinity (relative Kd-type affinity (reference)) [2]	stoichiometry N [3]	stoichiometry N [4]
GlmY processed (BLI)	2	1	–	–
GlmZ full length (BLI)	2	1	–	–
GlmZ processed (BLI)	2	1	–	–
B1	–	–	2	–
B2	–	–	–	4
